# From paper PMC8685902, “Perception of structurally distinct effectors by the integrated WRKY domain of a plant immune receptor”
# T1: RRS1 WRKY domain (RRS1-R) (UniProt C4B7M5 1194-1273)
# T1 sequence: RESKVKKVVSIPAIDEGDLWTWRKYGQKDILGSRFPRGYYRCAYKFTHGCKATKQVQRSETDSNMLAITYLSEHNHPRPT
# T2: AtWRKY41 DNA-binding domain (UniProt Q8H0Y8 125-204)
# T2 sequence: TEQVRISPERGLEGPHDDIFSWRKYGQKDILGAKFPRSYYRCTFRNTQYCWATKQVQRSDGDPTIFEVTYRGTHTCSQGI
# B1: Cy3 W-box DNA (dsDNA)
# DNA 1: CGCCTTTGACCAGCGC
# DNA 2: GCGCTGGTCAAAGGCG
# Legend:
# [1] = molecular target: AvrRps4^C, in planta processed C-terminal fragment of AvrRps4 (residues 134 to 221) (Pseudomonas syringae pv. pisi); assay: SEC; analytical gel filtration on a Superdex 75 10/300 column; proteins alone and after incubation at an equimolar (1:1) ratio
# [2] = molecular target: RRS1^WRKY, integrated WRKY domain of RRS1-R (residues 1194 to 1273) (Arabidopsis); assay: as above
# [3] = molecular target: AtWRKY41 (Thr125 to Ile204), DNA-binding domain (Arabidopsis) (UniProt Q8H0Y8); assay: ITC; AvrRps4^C (wild type or mutant) titrated into a solution of the WRKY domain; three independent experiments fitted globally to a 1:1 binding model (AFFINImeter)
# [4] = molecular target: RRS1B^WRKY, integrated WRKY domain of RRS1B (Asn1164 to Thr1241) (Arabidopsis) (UniProt Q9FL92); assay: as above
# [5] = molecular target: RRS1^WRKY, integrated WRKY domain of RRS1-R (residues 1194 to 1273) (Arabidopsis); assay: as above
# [6] = molecular target: AtWRKY41 DNA-binding domain (Thr125-Ile204) (Arabidopsis) (UniProt Q8H0Y8); assay: ITC; MicroCal PEAQ-ITC; cell 20 uM RRS1WRKY, AtWRKY41 or RRS1BWRKY, syringe 200 uM AvrRps4C wild type or mutant; 25 C; buffer A4 (20 mM HEPES pH 7.5, 150 mM NaCl); triplicate, global fit to a 1:1 binding model (AFFINImeter)
# [7] = molecular target: RRS1B^WRKY, integrated WRKY domain of RRS1B (Asn1164-Thr1241) (Arabidopsis) (UniProt Q9FL92); assay: as above
# [8] = molecular target: T1, RRS1 WRKY domain (RRS1-R); assay: EMSA; no effector; EMSA: 10 mM Tris-Cl pH 7.5, 50 mM KCl, 1 mM DTT, 5% glycerol; SPR: 10 mM HEPES pH 7.5, 250 mM NaCl, 0.005% Tween-20, 25 C (Biacore 8K, ReDCaT); settings: protein: recombinant; tags: 6xHis-MBP (pOPIN-M), cleaved with 3C; label: 5' Cy3 on forward strand; blunt
# [9] = molecular target: T2, AtWRKY41 DNA-binding domain; assay: as above; settings: protein: recombinant; tags: 6xHis-MBP (pOPIN-M), cleaved with 3C; label: 5' Cy3 on forward strand; blunt
# RRS1B^WRKY, integrated WRKY domain of RRS1B (Asn1164 to Thr1241) (Arabidopsis), sequence (Q9FL92 1164-1241): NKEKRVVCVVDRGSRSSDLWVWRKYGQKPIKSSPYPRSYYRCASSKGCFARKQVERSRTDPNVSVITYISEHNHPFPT
# RRS1B^WRKY, integrated WRKY domain of RRS1B (Asn1164-Thr1241) (Arabidopsis), sequence (Q9FL92 1164-1241): as above
molecule,measurement,setting,value
"AvrRps4^C, in planta processed C-terminal fragment of AvrRps4 (residues 134 to 221) (domain or fragment)",stoichiometry N,[1],2
same,stoichiometry N,[2],1
same,Kd,[3],20 nM
same,fold weaker binding than to RRS1^WRKY,[4],3 fold
same,Kd,[5],103 nM
same,stoichiometry N,[5],1
AvrRps4^C Q194A (domain or fragment),fold reduction in affinity against wild-type AvrRps4^C,[5],7 fold
"AvrRps4^C, the in planta processed C-terminal fragment of AvrRps4 (residues 134-221) (domain or fragment)",stoichiometry N,[6],1.1
same,stoichiometry N,[7],0.8
B1,binding result,[8],binds
same,binding result,[9],binds
